Assay results published in publication PMC4888843.

Key:
human BAXΔC21 (human) = human BAXΔC21 (human) (UniProt Q07812); assay: SEC
mouse Bcl-2ΔC22 (mouse) = mouse Bcl-2ΔC22 (mouse) (UniProt P10417); assay: SPR
[1] = target: human MCL-1ΔN170ΔC23 (human) (UniProt Q07820); assay: ELISA

## human BAXΔC21 (from UniProt Q07812 1-171) (domain or fragment)
Human BAXΔC21 (human)
  stoichiometry N: 2

## mBak Q75L BH3 synthetic peptide
Mouse Bcl-2ΔC22 (mouse)
  fold weaker affinity than wild-type mBak BH3: 2.5 fold

## phage-displayed human BAK BH3 peptide G82E (from UniProt Q16611 67-92)
[1]
  IC50: > 10 µM
